Six molecules from paper PMC6239910 (Molecular cell, 2018) can be followed below.

One may read the Kd as the concentration at which binding is half-saturated. A high value points to a looser complex.

Where two headings read alike, the source gives them in different places.

The target in assay [1] is T1, Ube2D3(C85S) (human, UniProt P61077 1-147, C85S). Kind of assay: NMR titration.
For assay [2], the target named is T1, Ube2D3(C85S). Kind of assay: NMR titration. The source holds these as a separate data set.
The next assay deals with Ube2D1 (human, UniProt P51668 1-147). Briefly: ITC. (In general: In ITC the heat of successive injections is recorded.)
Chain of Ube2D1 (P51668 whole entry): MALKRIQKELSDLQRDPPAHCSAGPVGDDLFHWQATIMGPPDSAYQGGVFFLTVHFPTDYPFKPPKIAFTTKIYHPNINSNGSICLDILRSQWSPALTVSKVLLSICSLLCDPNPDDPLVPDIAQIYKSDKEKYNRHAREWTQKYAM

T1 sequence (P61077 whole entry C85S): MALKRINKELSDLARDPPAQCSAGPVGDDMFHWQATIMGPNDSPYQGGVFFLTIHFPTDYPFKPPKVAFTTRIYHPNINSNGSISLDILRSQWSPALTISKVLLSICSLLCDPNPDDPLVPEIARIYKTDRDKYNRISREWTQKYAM

B1: UHRF2-UBL (residues 1–81) (domain or fragment, UniProt Q96PU4 1-81, looked up)
chain: MWIQVRTIDGSKTCTIEDVSRKATIEELRERVWALFDVRPECQRLFYRGKQLENGYTLFDYDVGLNDIIQLLVRPDPDHLP
Consider B1, for which, in the assay with Ube2D3(C85S) [1], the Kd was 215 µM.

B2: UHRF1-UBL (residues 1–76) (domain or fragment, human, UniProt Q96T88 1-76, looked up)
chain: MWIQVRTMDGRQTHTVDSLSRLTKVEELRRKIQELFHVEPGLQRLFYRGKQMEDGHTLFDYEVRLNDTIQLLVRQS
As for B2, the Kd with Ube2D3(C85S) [2] was found to be 15 µM.

B3: UHRF1-UBL K50R (domain or fragment, human, UniProt Q96T88 1-76, looked up)
chain: MWIQVRTMDGRQTHTVDSLSRLTKVEELRRKIQELFHVEPGLQRLFYRGRQMEDGHTLFDYEVRLNDTIQLLVRQS
For the molecule B3, the binding result in the assay with Ube2D1 is recorded as “binds”.

B4: UHRF1-UBL F59V (domain or fragment, human, UniProt Q96T88 1-76, looked up)
chain: MWIQVRTMDGRQTHTVDSLSRLTKVEELRRKIQELFHVEPGLQRLFYRGKQMEDGHTLVDYEVRLNDTIQLLVRQS
Regarding B4, the binding result with Ube2D1 is reported as “binds”.

B5: UHRF1-UBL W2V (domain or fragment, human, UniProt Q96T88 1-76, looked up)
chain: MVIQVRTMDGRQTHTVDSLSRLTKVEELRRKIQELFHVEPGLQRLFYRGKQMEDGHTLFDYEVRLNDTIQLLVRQS
Turning to B5, in the assay with Ube2D1, the binding result is given as “binds”.

B6: UHRF1-UBL L65A (domain or fragment, human, UniProt Q96T88 1-76, looked up)
chain: MWIQVRTMDGRQTHTVDSLSRLTKVEELRRKIQELFHVEPGLQRLFYRGKQMEDGHTLFDYEVRANDTIQLLVRQS
For B6, the binding result in the assay with Ube2D1 was “binds”.
